Reference: the Human Domainome abundance scans (Beltran et al. 2025)
± gives the uncertainty stated by the source.

B1: Cyclin-F, residues 28 to 80; numbered along this chain, P41002 (parent)
chain: RNLTILSLPEDVLFHILKWLSVEDILAVRAVHSQLKDLVDNHASVWACASFQE

Variants of: B1
Test: abundance fitness (aPCA) (normalised: wild type 0, dead -1); higher = more abundant; growth selection in yeast, the domain comes from the species named
Conditions: Homo sapiens

Variant | abundance fitness
K18I | -0.449 ± 0.16
K18P | -0.72 ± 0.17
K18Q | -0.081 ± 0.16
K18M | -0.251 ± 0.16
K18H | -0.122 ± 0.17
K18R | -0.14 ± 0.091
K18S | -0.215 ± 0.097
K18F | -0.573 ± 0.16
K18C | -0.597 ± 0.2
K18L | -0.553 ± 0.092
K18V | -0.452 ± 0.11
K18N | -0.107 ± 0.14
K18E | -0.148 ± 0.13
K18G | -0.132 ± 0.1
K18A | -0.314 ± 0.13
K18T | -0.254 ± 0.13
K18Y | -0.505 ± 0.22
K18D | -0.483 ± 0.19
Q34F | -0.4 ± 0.1
Q34M | -0.156 ± 0.075
Q34L | -0.368 ± 0.064
Q34C | -0.248 ± 0.086
Q34I | -0.129 ± 0.088
Q34H | -0.121 ± 0.1

Variant | abundance fitness
Q34A | -0.111 ± 0.062
Q34E | -0.455 ± 0.078
Q34D | -0.446 ± 0.087
V22H | -0.122 ± 0.14
V22Q | -0.267 ± 0.12
V22I | 0.005 ± 0.12
V22S | -0.452 ± 0.083
V22W | -0.087 ± 0.079
V22F | -0.141 ± 0.1
V22G | -0.553 ± 0.071
V22E | -0.285 ± 0.11
V22A | -0.142 ± 0.085
V22K | -0.132 ± 0.14
V22T | -0.168 ± 0.11
V22R | -0.177 ± 0.067
V22Y | 0.02 ± 0.098
V22D | -0.405 ± 0.12
V22C | -0.286 ± 0.091
E23D | 0.057 ± 0.24
E23Y | -0.62 ± 0.2
E23L | -0.856 ± 0.15
E23T | -0.477 ± 0.18
E23V | -0.372 ± 0.13
E23S | -0.186 ± 0.11

Variant | abundance fitness
E23R | -0.001 ± 0.12
E23N | -0.319 ± 0.21
E23K | -0.105 ± 0.14
E23H | -0.358 ± 0.16
E23P | -0.236 ± 0.18
E23G | -0.48 ± 0.12
E23M | -0.802 ± 0.24
E23C | -0.627 ± 0.23
E23W | -0.577 ± 0.23
E23A | -0.053 ± 0.14
A30Q | -0.031 ± 0.11
A30S | 0.111 ± 0.081
A30P | -0.844 ± 0.14
A30K | -0.339 ± 0.14
A30N | -0.356 ± 0.21
A30C | 0.089 ± 0.13
A30W | -0.836 ± 0.12
A30V | -0.125 ± 0.098
A30I | -0.264 ± 0.14
A30L | 0.377 ± 0.075
A30R | 0.053 ± 0.074
A30M | 0.188 ± 0.11
A30T | -0.04 ± 0.12
A30F | -0.62 ± 0.16

Variant | abundance fitness
L17I | 0.148 ± 0.26
L17E | -1.06 ± 0.23
L17S | -0.896 ± 0.14
L17D | -0.868 ± 0.28
L17Q | -0.782 ± 0.21
L17F | 0.056 ± 0.12
L17T | -0.63 ± 0.18
L17C | -0.223 ± 0.14
L17A | -0.781 ± 0.13
L17V | -0.169 ± 0.093
L17H | -0.678 ± 0.46
L17R | -0.774 ± 0.12
L17G | -0.547 ± 0.099
L17N | -0.926 ± 0.4
V28A | -0.774 ± 0.13
V28M | 0.036 ± 0.14
V28F | -0.396 ± 0.14
V28S | -0.823 ± 0.12
V28N | -1.09 ± 0.37
V28L | 0.168 ± 0.083
V28K | -0.71 ± 0.2
V28E | -0.82 ± 0.18
V28T | -0.615 ± 0.15
V28G | -0.759 ± 0.1

Variant | abundance fitness
V28C | -0.173 ± 0.17
V28W | -0.705 ± 0.13
V28H | -0.372 ± 0.22
V28Q | -0.716 ± 0.2
V28P | -0.88 ± 0.15
V28R | -0.833 ± 0.12
V28D | -0.885 ± 0.21
V28I | -0.184 ± 0.09
V31C | -0.056 ± 0.1
V31K | -0.809 ± 0.24
V31E | -1.16 ± 0.24
V31T | 0.124 ± 0.11
V31A | -0.046 ± 0.089
V31Q | -0.532 ± 0.15
V31S | 0.191 ± 0.09
V31G | -0.672 ± 0.11
V31I | -0.594 ± 0.11
V31M | -0.681 ± 0.16
V31F | -0.747 ± 0.17
V31H | -0.976 ± 0.22
V31D | -0.729 ± 0.2
V31W | -0.769 ± 0.19
V31Y | -0.964 ± 0.23
V31R | -0.754 ± 0.14

Variant | abundance fitness
V31N | -0.586 ± 0.31
W19R | -0.154 ± 0.097
W19S | -0.057 ± 0.091
W19E | 0.227 ± 0.16
W19Y | 0.397 ± 0.17
W19G | -0.273 ± 0.097
W19T | -0.269 ± 0.14
W19D | -0.137 ± 0.12
W19N | 0.223 ± 0.11
W19C | 0.229 ± 0.11
W19K | 0.218 ± 0.25
W19M | 0.33 ± 0.13
W19V | -0.226 ± 0.084
W19P | -0.458 ± 0.14
W19H | 0.257 ± 0.18
W19L | 0.293 ± 0.084
S33E | -0.675 ± 0.081
S33I | -0.855 ± 0.14
S33Y | -0.791 ± 0.12
S33H | -0.443 ± 0.11
S33K | -0.294 ± 0.091
S33R | -0.158 ± 0.061
S33W | -0.48 ± 0.078
S33F | -0.801 ± 0.11

Variant | abundance fitness
S33N | -0.67 ± 0.14
S33C | -0.828 ± 0.15
S33A | -0.648 ± 0.072
S33V | -0.544 ± 0.066
S33T | -0.247 ± 0.08
S33G | -0.554 ± 0.064
S33M | -0.72 ± 0.089
S33Q | -0.672 ± 0.11
S21Q | -0.473 ± 0.17
S21K | -0.272 ± 0.17
S21Y | -0.566 ± 0.19
S21C | -0.311 ± 0.18
S21L | -0.855 ± 0.12
S21E | -0.092 ± 0.14
S21P | -0.047 ± 0.12
S21D | 0.135 ± 0.13
S21M | -0.815 ± 0.23
S21F | -0.731 ± 0.15
S21H | -0.334 ± 0.19
S21W | -0.824 ± 0.16
S21A | -0.113 ± 0.1
S21G | -0.226 ± 0.1
S21T | -0.126 ± 0.1
